Test [1] has as its target mCAR-CD1a (murine CAR-CD1a, scFv derived from the NA1/34.HLK clone) expressed on transduced T cells. The test can be described thus: FACS of mCD1a-CAR-T cells incubated with rCD1a (25 nM by the legend paragraph 24, 200 nM by Example 11 paragraph 349), detection with anti-HIS-APC; UT cells in the same gate 0,2% [cont.) B].
Test [2] concerns the target T1, human recombinant protein extracellular domain of CD1a (rCD1a), produced with a 6xHis tag as a dimer with … (human, UniProt P06126 17-300; P61769 21-119).
T1 construct: Used soluble in flow cytometry on CAR-T cells (detected with anti-HIS-APC) and immobilized on CM5 chips in SPR; also called rCD1a-HIS; recombinant protein CD1a; not shown: 6xHis tag
The test can be described thus: SPR, Biacore T-200, rCD1a immobilized on CM5 chip, soluble scFv, 1:1 binding fit, 298 K. On the technique in general: Surface plasmon resonance follows binding to a sensor surface in real time, without labels.

Test [3] addresses T1, human recombinant protein extracellular …. The test can be described thus: SPR, ratio of KD against mscFv-CD1a.

As to “human recombinant protein extracellular domain of CD1a (rCD1a), produced with a 6xHis tag as a dimer with b2-microglobulin (hB2M) (from UniProt P06126 17-300; P61769 21-119)”, the % of rCD1a positive bound cells in test [1] is 23.3%.

B1: h(2)scFv-CD1a: recombinant humanized (H2 version) scFv anti-CD1a with a 6xHis tag, from XtenCHO cells (scFv)
scFv: QVQLQQSGAEVKKPGASVKVSCKASGYAFSTYTMHWVRQAPGQGLEWMGYINPNSASTSYAQKFQGRVTMTADKSTNTAYMELSSLRSEDTAVYYCARGFYTMDYWGQGTLVTVSSGGGGSGGGGSGGGGSGGGGSRDIQMTQSPSSLSASVGDRVTITCQASQDINKYIAWYQFKPGKGPRLLIHYTSTLEPAIPSRFSGSGSGREYTFTISSLQPEDIATYYCLHYDNLPWTFGGGTKVEIKRA
notes: also called hscFv-CD1a; humanized2_scFv-anti-CD1a; not shown: 6xHis tag
Broadly, the Kd is the constant that tells how readily two partners part at equilibrium. As usually defined, the koff is a measure of how fast the partners let go of each other. A word on the kon: it is the rate constant with which the complex forms. Turning to B1, in test [2], the Kd turned out to be 21 nM, the off-rate constant (koff) was 0.0012 s⁻¹ and the association rate constant (kon) came out at 56300 M⁻¹ s⁻¹. Moreover, the “fold higher affinity than the murine scFv (mscFv-CD1a)” value in test [3] was 2.4 fold.

B2: mscFv-CD1a: recombinant murine scFv anti-CD1a with a 6xHis tag, from XtenCHO cells (scFv)
scFv: QVQLQQSGAELARPGASVKMSCKASGYAFSTYTMHWVKQRPRQGLEWIGYINPNSASTSYNENFKDKATLTADKSSNTAYMHLSSLTSEDSAVYYCARGFYTMDYWGQGTSVTVSSGGGGSGGGGSGGGGSGGGGSRDIQMTQSPSSLSASLGGKVTITCQASQDINKYIAWYQFKPGKGPRLLIHYTSTLQPAIPSRFSGSGSGREYSFSISNLEPEDIATYYCLHYDNLPWTFGGGTKLEIKRAHHHHHH
On to B2, for which, in test [2], the Kd came out at 50 nM, the koff is 0.00121 s⁻¹ and the kon was determined as 24600 M⁻¹ s⁻¹.

The record behind these values is patent US20250304697A1 (ONECHAIN IMNUNOTHERAPEUTICS S L, published 2025).
